Several values for one entry are separate records, joined by “and”; a condition that tells them apart may be missing. Equal entries are not always repeated.
Target: protamine

B1: iridoptin (37-kDa polypeptide expressed from the subgenic istk fragment of Chilo iridescent virus, 6xHis-tagged, Pichia-expressed) (protein)
chain: MDLKDEFIQIIKKYSELSLKESENETKKYIQEVFNVSLSEVFIKEPSKQETLKQEPTQETGCIYIFKKGKNIGQKCGSGKSKFCYKHKKNDLNIKVNQERNIKKPIPKPIPTNKIETGSVINQNWFIGTSIGKGGFGEIYSAAKFNDHGNYKDDDFSFAIKIEPKSGPLFVEMHFYKRVIVEKEIEKFKLQKNIQYLGLPKYYGSGLYNDYRYIVMEKYDSNIDKLFRNGDLNSSTILQIGIQILNIVEYIHSKGYIHADIKGENILLKENDTSHIYLVDFGLCSRYSNG
B1 was tested, and the SPECIFIC ACTIVITY (CPM/µg TOTAL PROTEIN), protein kinase assay (CPM/µg total protein) was 1110 and 895 and the SPECIFIC ACTIVITY (CPM/µg TOTAL PROTEIN), protein kinase assay, mean (CPM/µg total protein) was 1000.
